From PMC9637641

These substances were tested against FV-BR fragment (human) (UniProt P12259) (assay: not given).
FV-BR fragment (human), sequence (P12259 979-1036): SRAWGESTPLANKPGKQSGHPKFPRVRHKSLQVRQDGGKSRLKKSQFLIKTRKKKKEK

Human FVa, sequence (P12259 29-737): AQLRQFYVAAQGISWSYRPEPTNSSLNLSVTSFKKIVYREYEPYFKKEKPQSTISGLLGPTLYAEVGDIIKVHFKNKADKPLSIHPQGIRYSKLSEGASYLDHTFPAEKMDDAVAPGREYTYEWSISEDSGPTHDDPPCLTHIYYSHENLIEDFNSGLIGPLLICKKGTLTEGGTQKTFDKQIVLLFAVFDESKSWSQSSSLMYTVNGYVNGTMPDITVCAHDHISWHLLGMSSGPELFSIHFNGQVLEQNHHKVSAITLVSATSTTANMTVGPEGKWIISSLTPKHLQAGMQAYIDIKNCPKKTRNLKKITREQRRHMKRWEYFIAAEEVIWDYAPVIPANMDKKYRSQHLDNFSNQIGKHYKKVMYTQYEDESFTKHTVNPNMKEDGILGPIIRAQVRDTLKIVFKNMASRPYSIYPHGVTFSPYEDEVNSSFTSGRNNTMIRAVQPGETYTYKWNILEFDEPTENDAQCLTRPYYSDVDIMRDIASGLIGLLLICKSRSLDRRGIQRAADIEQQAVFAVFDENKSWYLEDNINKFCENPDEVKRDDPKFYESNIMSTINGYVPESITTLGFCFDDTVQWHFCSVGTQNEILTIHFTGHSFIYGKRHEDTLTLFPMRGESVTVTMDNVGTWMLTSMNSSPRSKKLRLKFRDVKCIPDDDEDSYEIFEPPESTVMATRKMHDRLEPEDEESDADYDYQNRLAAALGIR
Human FVa, sequence (P12259 1574-2224): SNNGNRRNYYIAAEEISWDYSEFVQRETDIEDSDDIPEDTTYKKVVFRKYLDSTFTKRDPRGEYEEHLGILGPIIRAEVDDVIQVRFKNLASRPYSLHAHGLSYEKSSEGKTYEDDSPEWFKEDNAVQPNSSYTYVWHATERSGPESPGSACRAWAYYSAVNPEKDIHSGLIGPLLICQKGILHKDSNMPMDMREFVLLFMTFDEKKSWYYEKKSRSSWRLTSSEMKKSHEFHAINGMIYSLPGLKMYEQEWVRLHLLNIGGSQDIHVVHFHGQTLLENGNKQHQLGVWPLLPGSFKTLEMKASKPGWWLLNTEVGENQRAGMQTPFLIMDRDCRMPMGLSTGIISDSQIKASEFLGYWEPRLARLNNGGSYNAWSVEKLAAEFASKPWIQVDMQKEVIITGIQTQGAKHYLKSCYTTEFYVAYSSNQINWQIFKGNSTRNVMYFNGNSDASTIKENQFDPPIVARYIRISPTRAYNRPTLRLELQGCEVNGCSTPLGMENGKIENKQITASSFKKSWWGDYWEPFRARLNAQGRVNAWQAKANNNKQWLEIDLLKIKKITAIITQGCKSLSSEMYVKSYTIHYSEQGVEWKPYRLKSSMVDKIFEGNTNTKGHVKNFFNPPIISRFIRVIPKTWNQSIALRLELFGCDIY

Compared with FV-810, FV-short (natural protein) is lower in Reduced fold change of inactivation by APC, +FV-BR (kobs no BR divided by kobs +BR; % peak thrombin in TGA; 20 nM FV species, 250 nM BR fragment, 1 nM APC): 17 fold for the first, 15.7 fold for the second.

Work on “Human FVa (from UniProt P12259 29-737; P12259 1574-2224) (complex)” yielded a Reduced fold change of inactivation by APC, +FV-BR (kobs no BR divided by kobs +BR; % peak thrombin in TGA; 20 nM FV species, 250 nM BR fragment, 1 nM APC) of 0.9 fold.

Each substance was assayed against OG488-TFPIα-BR (assay: not given).

In the case of FV-810, the Reduced fold change of inactivation by APC, +TFPIα-BR (kobs no BR divided by kobs +BR; % peak thrombin in TGA; 20 nM FV species, 250 nM BR fragment, 1 nM APC) is reported as 17 fold.

What follows are substances tested against OG488-TFPIα-BR (assay: fluorescence polarisation; steady-state fluorescence anisotropy; FV species or APCi titrated (0–100 nM) into 25 nM OG488-TFPIα-BR and 50 μM PCPS vesicles in HBS/Ca2+/PEG, pH 7.4 (20 mM Hepes, 150 mM NaCl, 5 mM CaCl2, 0.1% PEG-8000), 25 °C; fit to a model for tight binding).

FV-810 and FV-810-R306Q are within 1.5-fold of each other in Kd: 1.78 nM for the first, 2.15 nM for the second.

FV-810-R306Q/R506Q and FV-810-R506Q are within 1.5-fold of each other in Kd: 2.46 nM for the first, 1.72 nM for the second.

For “FV-s46 (from UniProt P12259 29-990; P12259 1037-2224)”, the Kd was 2.17 nM.

First: FV-810
Second: FV-810-R306Q
The stoichiometry N of the first is lower: 1.29 mol/mol for the first, 1.44 mol/mol for the second.

Compared with FV-810-R306Q/R506Q, FV-810-R506Q is higher in stoichiometry N: 1.18 mol/mol for the first, 1.43 mol/mol for the second.

“FV-s46 (from UniProt P12259 29-990; P12259 1037-2224)” showed a stoichiometry N of 1.78 mol/mol.
